Assay [1] addresses human membrane bound IgM with kappa light chain (mIgM-kappa) (human, UniProt P01871 1-474). Kind of assay: cell-based or functional assay.
Assay [2] concerns the target T1, mIgG proximal domain peptide ELQLEESCAEAQDGELDG (human).
T1 construct: also called mIgG-PD; 18-mer mIgG
T1 peptide: ELQLEESCAEAQDGELDG
Kind of assay: competition ELISA, block 'Blocked by mAb 1', mIgG-PD. A general note: An ELISA detects its analyte on a solid surface through an enzyme-linked reagent.

human membrane bound IgM with kappa light chain (mIgM-kappa), sequence (P01871 whole entry, the tested form may be a part): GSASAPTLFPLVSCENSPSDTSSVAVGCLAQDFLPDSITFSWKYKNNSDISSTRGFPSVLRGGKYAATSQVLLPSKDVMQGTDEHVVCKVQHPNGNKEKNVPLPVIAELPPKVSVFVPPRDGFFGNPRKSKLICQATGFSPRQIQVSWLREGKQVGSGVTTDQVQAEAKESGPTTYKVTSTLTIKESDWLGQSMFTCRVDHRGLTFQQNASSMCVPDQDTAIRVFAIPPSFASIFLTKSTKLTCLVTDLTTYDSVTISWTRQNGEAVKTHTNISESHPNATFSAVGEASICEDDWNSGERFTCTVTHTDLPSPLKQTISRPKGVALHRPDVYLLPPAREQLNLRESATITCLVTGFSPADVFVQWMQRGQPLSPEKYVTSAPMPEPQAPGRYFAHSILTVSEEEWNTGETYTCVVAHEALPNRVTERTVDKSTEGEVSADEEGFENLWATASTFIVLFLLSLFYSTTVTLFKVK

B1: monoclonal antibody mAb4-2b (antibody, mouse IgG1, V domains shown)
VH: EVQLEESGAELVKPGASLKLSCKASGYTFTSYWMNWVKQRPGQGLEWIGIIHPNSGSTNYNEKFKTKATLTVDKSSSTAYMQLSSLTSEDSAVYYCARTRGNYGMDYWGQGTSVTVSS
VL: DIVMTQSHKFMSTSVGDRVSITCKASQDVSTAVAWYQQKPGQSPTLLIYSASYRNTGVPDRFTGSGSGTDFTFTISSVQAEDLAVYYCQQHFSIPPLTFGAGTKLELKR
Consider B1, for which the “clonogenic capacity of CA 46” value in assay [1] was 100 fold. For the same molecule, the binding result in assay [2] was “no binding”.

For the origin of these results see US20160304625A1 (WELT BIO MOLECULAR PHARMACEUTICAL, published 2016).
